From paper PMC8155215, “The splicing factor XAB2 interacts with ERCC1-XPF and XPG for R-loop processing”

Target: T1, recombinant human XAB2 (Homo sapiens, UniProt Q9HCS7 1-855)
T1 sequence: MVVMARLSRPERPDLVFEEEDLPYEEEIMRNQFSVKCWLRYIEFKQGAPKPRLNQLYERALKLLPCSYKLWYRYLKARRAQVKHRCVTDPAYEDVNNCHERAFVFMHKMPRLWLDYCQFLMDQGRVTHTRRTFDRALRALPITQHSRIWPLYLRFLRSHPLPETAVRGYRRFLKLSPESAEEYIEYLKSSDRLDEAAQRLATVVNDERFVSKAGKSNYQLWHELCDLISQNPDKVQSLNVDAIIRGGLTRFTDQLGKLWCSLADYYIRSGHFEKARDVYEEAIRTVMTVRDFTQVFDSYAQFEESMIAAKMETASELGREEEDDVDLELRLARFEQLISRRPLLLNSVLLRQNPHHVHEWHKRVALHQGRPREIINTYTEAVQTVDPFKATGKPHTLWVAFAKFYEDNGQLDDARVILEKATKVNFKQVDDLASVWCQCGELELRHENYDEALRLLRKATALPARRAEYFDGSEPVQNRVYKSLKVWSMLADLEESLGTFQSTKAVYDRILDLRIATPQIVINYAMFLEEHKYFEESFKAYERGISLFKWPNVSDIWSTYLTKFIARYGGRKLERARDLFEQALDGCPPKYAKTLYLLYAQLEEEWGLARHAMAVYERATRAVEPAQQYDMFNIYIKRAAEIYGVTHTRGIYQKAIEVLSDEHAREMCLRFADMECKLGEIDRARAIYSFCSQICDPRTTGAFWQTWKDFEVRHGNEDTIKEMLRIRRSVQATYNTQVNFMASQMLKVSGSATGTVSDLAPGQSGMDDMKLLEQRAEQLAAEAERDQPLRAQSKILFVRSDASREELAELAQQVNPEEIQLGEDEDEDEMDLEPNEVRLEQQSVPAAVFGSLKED
Assay: EMSA; 0.1-10 nmol protein, 100 pmol RNA; no consumption of RNA oligo; 10 mM Tris-HCl pH 8.0, 50 mM KCl, 10% glycerol, 0.5 mM EDTA, 0.5 mM DTT, 1 ug/ml BSA, 6 mM MgCl2, 30 min at 4 C, 10 ul, 100 pmol RNA; 4% native PAGE in 0.5x TBE pH 7.5
Details: protein: commercial; label: 5' biotin; single strand

AUUGGAACGAUACAGAGAAGAU (ssRNA) [XAB2RBS]
binding result: no binding
